In PMC4245959, “Molecular recognition of RhlB and RNase D in the Caulobacter crescentus RNA degradosome” (Nucleic Acids Research, 2014):
One block for each molecule: values may come before it.

B1: recombinant RNase D with an N-terminal hexa-histidine tag (enzyme, Caulobacter crescentus (CB15), UniProt Q9A7L8 1-389, looked up)
chain: MKLITTTAELAAFCNGLAGEPFVAVDTEFMRETTYWPKLCLIQVASPTQEAVIDPLADNIDLEPLLVVMRDERILKVFHAARQDVEIFNNLKAMPKPLFDTQVAGMAAGFGEQIAYDALVRQMLRIEIDKSSRFTDWARRPLTDAQLSYALADVTHLAKLFPILRERLETSGRLAWVEEEMTAISDPAAYDVDPEKAWRRLRPRKTAPKYLAVFKAVAAWRERTAQNRDQPRGRILKDEAIDELATQTPGNLEALNNLRGVPKGFGGSKFGPDLLAAIKDALADPEGYAPVVDKPGPPPPQNAGAVVELLKVLLKARAEEAGVASKLIATVSDLEKIAADDNATTPALTGWRREAFGSDALKIKRGELALVLDGARVRVVEVRRAPKND
notes: ribonuclease D; the RNase D gene (cc1704) amplified from C. crescentus (CB15) genomic DNA into pETDuet-1; also called 6xHis-tagged RNase D; not shown: His6, N-terminal, kept
B2: recombinantly expressed and purified RhlB (enzyme, Caulobacter crescentus, UniProt Q9A779 1-517, looked up)
chain: MTEFTDLGLSPTTLQAVADTGYTTATPIQAQAIPVALAGQDVLGIAQTGTGKTAAFTLPLIDRLQSGRAKARMPRALVIAPTRELADQVAASFEKYAKGTKLSWALLIGGVSFGDQEKKLDRGVDVLIATPGRLLDHFERGKLLMTGVQFLVVDEADRMLDMGFIPDIERIFKMTPPKKQTLFFSATMPPEITRLTKQFLRDPVRIEVARPATTNANITQLLVKVPSSDPKAKRLALRALIEKAGIETGIVFCNRKTEVDIVAKSLKVHGYDAAPIHGDLDQTQRMKTLADFRSGALKILVASDVAARGLDIPAVSHVFNYDVPHHADDYVHRIGRTGRAGRTGITYMLVTPADDKGFDKVIKLIGSTPDEEKLDLDYSNAVTVKREGDRKRGGRDRDRGERGERSERPARGRGRGRERAEETVEAPAEAVAEIVDTPAMAEERPARERRPRREREPKAAAPAPTAVEAERPARAERPERPVRGVQPVRDRDDDDRRVVGFGSDVPAFLARPPRGAK
notes: DEAD-box RNA helicase RhlB (cc1847) of Caulobacter crescentus; monomeric in solution; source: recombinantly expressed and purified
B3: C. crescentus RNase E catalytic domain, residues 1–575, N-terminally 6xHis tagged (domain or fragment, Caulobacter crescentus, UniProt Q9A749 1-575, looked up)
chain: MSKKMLIDAAHAEETRVVVVDGTRVEEFDFESQTRKQLRGNIYLAKVTRVEPSLQAAFIEYGGNRHGFLAFNEIHPDYYQIPVADREALMRDDSGDDEDDTPISRRASGGDDEDDVNGGDRAVDDDDDDVEEELARRKRRLMRKYKIQEVIRRRQIMLVQVVKEERGNKGAALTTYLSLAGRYGVLMPNTARGGGISRKITAVTDRKRLKSVVQSLDVPQGMGLIVRTAGAKRTKAEIKRDYEYLLRLWENIRENTLHSIAPALIYEEEDLVKRAIRDMYDKDLDGIWVEGDAGYKEARDFMRMLMPSQAKKVFNYRDPTPLFVKNKIEDHLAQIYSPVVPLRSGGYLVINQTEALVAIDVNSGKATRERNIEATALKTNCEAAEEAARQLRLRDLAGLIVIDFIDMDEAKNNRTVEKVLKDALKDDRARIQMGKISGFGLMEISRQRRRTGVLEGTTHVCEHCEGTGRVRSVESSALAALRAVEAEALKGSGSVILKVSRSVGLYILNEKRDYLQRLLTTHGLFVSVVVDDSLHAGDQEIERTELGERIAVAPPPFVEEDDDFDPNAYDDEEEE
notes: tetramer by AUC; also called CcNTD

What was measured:
[1] = molecular target: fragment of C. crescentus RNase E containing the S1 and 5′-sensor sub-domains, residues 1–274 (Caulobacter crescentus); assay: AUC; sedimentation velocity of the co-expressed, co-purified CcNTD(1–274)–RhlB complex at 2 mg/ml in 20-mM Tris pH 7.5, 200-mM NaCl, 20°C, 50 000 rpm
[2] = molecular target: the molecule itself; assay: AUC; recombinant RNase D alone; single species of 85.9 kDa
[3] = molecular target: B3; assay: AUC; sedimentation velocity of the SEC fractions of the CcNTD(1–575)–RhlB complex; continuous molar mass distribution; conditions: both partners purified
[4] = molecular target: the molecule itself; assay: AUC; sedimentation velocity, CcNTD(1–575) alone at 2 mg/ml in NTD buffer, 20°C, 40 000 rpm

stoichiometry N [1]: 1
Molecule: RhlB co-expressed with CcNTD_(1–274) (enzyme)

Molecule: B1
stoichiometry N [2]: 2

Molecule: B2
stoichiometry N [3]: 2 RhlB monomers per CcNTD_(1–575) tetramer

Molecule: B3
stoichiometry N [4]: 4
